Legend:
Settings in all cases: label: none (ethidium bromide stain)
HTLV-1 Rex peptide [1] = target: T1, HTLV-1 Rex peptide (HTLV-1, UniProt P0C206); test: EMSA; peptide in excess over RNA; ++; 50 mM Tris-HCl pH 8.0, 50 mM KCl, 30 °C 15 min; RNA refolded from 95 °C; 15% PAGE in Tris-borate-EDTA, ethidium bromide stain
T1 chain: MPKTRRRPRRSQRKRP

bacteriophage λN peptide = target: T2, bacteriophage λN peptide (bacteriophage lambda, UniProt P03045); test: EMSA; 50 mM Tris-HCl pH 8.0, 50 mM KCl, 30 °C 15 min; RNA refolded from 95 °C; 15% PAGE in Tris-borate-EDTA, ethidium bromide stain
T2 chain: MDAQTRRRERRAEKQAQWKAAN

HTLV-1 Rex peptide [2] = target: T1, HTLV-1 Rex peptide; test: as above

With UAGGCGACGGUACGCAAGUACUCUUGCGCCGGCCUA (structured_RNA) [HTLV-1 Rex aptamer] the “apparent K (half saturation)” value (HTLV-1 Rex peptide [1]) was roughly 300 nM and the binding result (bacteriophage λN peptide) was “no binding”.

GGCUGGACUCGUACUUCGGUACUGGAGAAACAGCC (structured_RNA) [HIV-1 Rev aptamer]: no binding (HTLV-1 Rex peptide [2]); no binding (bacteriophage λN peptide).
